Target: ^cchexAFG3L2 (human) (UniProt Q9Y4W6)
Assay: SEC

“^cchexAFG3L2 (from UniProt Q9Y4W6 272-797) (enzyme)” was tested, and the stoichiometry N was 6.

From article PMC6475807
